Here are results for 43 molecules from patent publication US7026443.

Experiment [1] addresses HLA-A*0301 (human).
The target of experiment [2] is HLA-A*1101 (human).
Experiment [3] has as its target HLA-A*0301 (human). Description: competition with 125I-labeled standard peptide for purified HLA, gel filtration. On the technique in general: SEC sorts molecules by how far they enter the pores of the column.
Experiment [4] has as its target HLA-A*1101 (human). The description is as above.
The target of experiment [5] is HLA-A*1101 (human). This is another data set of the same source.
The target of experiment [6] is HLA-A*0301 (human). This is another data set of the same source.
The target of experiment [7] is HLA-A*0201 (human). Description: competition with 125I-labelled standard peptide for purified HLA-A*0201, gel filtration.
For experiment [8], the target named is HLA-A*1101 (human). Description: competition with 125I-labelled standard peptide for purified HLA-A*1101, gel filtration.

Where two headings read alike, the source gives them in different places.

For the molecule SVAALYWYR (modifications not checked) [HPV45 E1 peptide … (position 308, 9 amino acids)], the relative binding ratio (IC50 of standard peptide / IC50 of test peptide) in experiment [1] was 2.9; in experiment [2] it was 8.8.

In the case of MSFLTALKR (modifications not checked) [HPV16 E1 peptide … (position 454, 9 amino acids)], the values for the relative binding ratio (IC50 of standard peptide / IC50 of test peptide) in experiment [3] and in experiment [4] were 0.087 and 0.098, respectively.

For NMSQWIRFR (modifications not checked) [HPV18 E1 position 428 peptide …], the binding affinity ratio (IC50 of standard peptide / IC50 of test peptide) in experiment [1] was 0.054; in experiment [2] it was 0.0012.

As to LVRPFKSNK (modifications not checked) [HPV16 E1 peptide … (position 222, 9 amino acids)], the relative binding ratio (IC50 of standard peptide / IC50 of test peptide) in experiment [3] stood at 0.07; in experiment [4], 1.8.

In the case of MLIQPPKLR (modifications not checked) [HPV18 E1 position 312 peptide …], the binding affinity ratio (IC50 of standard peptide / IC50 of test peptide) in experiment [1] stood at 0.0005; in experiment [2], 0.0014.

Regarding GLSFTDLVR (modifications not checked) [HPV18 E1 position 223 peptide …], the figures for the binding affinity ratio (IC50 of standard peptide / IC50 of test peptide) in experiment [5], in experiment [3] and in experiment [4] were 0.0025, 0.0009 and 0.0025, respectively.

With CATMCKHYR (modifications not checked) [HPV18 E1 position 412 peptide …], the values for the binding affinity ratio (IC50 of standard peptide / IC50 of test peptide) in experiment [3] and in experiment [4] were 0.0012 and 0.011, respectively.

As for ATMCKHYRR (modifications not checked) [HPV18 E1 position 413 peptide …], in experiment [4], the binding affinity ratio (IC50 of standard peptide / IC50 of test peptide) turned out to be 0.28.

SVAALYWYR (modifications not checked) [HPV18 E1 position 322 peptide …]: the binding affinity ratio (IC50 of standard peptide / IC50 of test peptide) worked out at 2.9 in experiment [1] and 8.8 in experiment [2].

Consider NSNAAAFLK (modifications not checked) [HPV18 E1 position 393 peptide …], for which the binding affinity ratio (IC50 of standard peptide / IC50 of test peptide) in experiment [1] amounted to 0.0057; in experiment [2], 0.37.

With NSNASAFLK (modifications not checked) [HPV16 E1 peptide … (position 386, 9 amino acids)], the binding affinity ratio (IC50 of the standard peptide / IC50 of the test peptide) in experiment [6] is 0.0005. The relative binding ratio (IC50 of standard peptide / IC50 of test peptide) in experiment [3] turned out to be 0.0005; in experiment [4], 0.011.

Take QMNMSQWIR (modifications not checked) [HPV18 E1 position 426 peptide …]: the values for the binding affinity ratio (IC50 of standard peptide / IC50 of test peptide) in experiment [1] and in experiment [2] were 0.0011 and 0.0023, respectively.

Turning to TAAALYWYK (modifications not checked) [HPV16 E1 peptide … (position 315, 9 amino acids)], the relative binding ratio (IC50 of standard peptide / IC50 of test peptide) in experiment [3] worked out at 0.78.

Take EIDGVNHQHL (modifications not checked) [HPV18 E7 peptide … (position 40)]: the relative binding ratio (IC50 of standard peptide / IC50 of test peptide) in experiment [7] is 0.0001.

With TAQEAKQHR (modifications not checked) [HPV16 E1 peptide … (position 72, 9 amino acids)], the relative binding ratio (IC50 of standard peptide / IC50 of test peptide) in experiment [3] is 0.0005; in experiment [4] it was 0.0025.

With LVRNFKSDK (modifications not checked) [HPV18 E1 position 229 peptide …], the binding affinity ratio (IC50 of standard peptide / IC50 of test peptide) was found to be 0.0005 in experiment [1] and 0.0002 in experiment [2].

For the molecule CMCCKCEARI (modifications not checked) [HPV18 E7 peptide … (position 63)], the relative binding ratio (IC50 of standard peptide / IC50 of test peptide) in experiment [7] amounted to 0.002.

For the molecule DLRAFQQL (modifications not checked) [HPV18 E7 peptide DLRAFQQL (position 82)], in experiment [7], the relative binding ratio (IC50 of standard peptide / IC50 of test peptide) amounted to 0.0001.

As to GTGCNGWFYV (modifications not checked) [HPV16 E1 12 peptide …], in experiment [7], the relative binding ratio (IC50 of standard peptide / IC50 of test peptide) was found to be 0.0006.

In the case of FITFLGALK (modifications not checked) [HPV18 E1 position 460 peptide …], the binding affinity ratio (IC50 of standard peptide / IC50 of test peptide) in experiment [3] worked out at 0.032; in experiment [4] it was 0.037.

Take GVLILALLR (modifications not checked) [HPV18 E1 position 279 peptide …]: the binding affinity ratio (IC50 of standard peptide / IC50 of test peptide) in experiment [3] is 0.0058; in experiment [4], 0.14; in experiment [8] it was 0.14.

As to IAQLKDLLK (modifications not checked) [HPV18 E1 position 198 peptide …], the binding affinity ratio (IC50 of standard peptide / IC50 of test peptide) in experiment [5] was 0.0027; in experiment [3], 0.0003; in experiment [4], 0.0027.

With ALLRYKCGK (modifications not checked) [HPV18 E1 position 284 peptide …], the binding affinity ratio (IC50 of standard peptide / IC50 of test peptide) in experiment [3] was 0.09; in experiment [4] it was 0.14.

Take GVSFSELVR (modifications not checked) [HPV16 E1 peptide … (position 216, 9 amino acids)]: the results for the binding affinity ratio (IC50 of standard peptide / IC50 of test peptide) in experiment [1] and in experiment [2] were 0.0011 and 0.018, respectively.

Take FLQGSVICFV (modifications not checked) [HPV16 E1 493 peptide …]: the relative binding ratio (IC50 of standard peptide / IC50 of test peptide) in experiment [7] was 0.23.

With GLTPSIADSI (modifications not checked) [HPV16 E1 242 peptide …], the relative binding ratio (IC50 of standard peptide / IC50 of test peptide) in experiment [7] worked out at 0.0002.

In the case of MMIEPPKLR (modifications not checked) [HPV16 E1 peptide … (position 305, 9 amino acids)], the relative binding ratio (IC50 of standard peptide / IC50 of test peptide) in experiment [3] was found to be 0.001; in experiment [4], 0.0086.

Take NSNAAAFLK (modifications not checked) [HPV33 E1 379 peptide … (SEQ ID NO: 10558)]: the results for the binding affinity ratio (IC50 of standard peptide / IC50 of test peptide) (ratio relative to standard peptide) in experiment [1] and in experiment [2] were 0.0057 and 0.37, respectively.

As to SLFGMSLMK (modifications not checked) [HPV16 E1 peptide … (position 484, 9 amino acids)], the relative binding ratio (IC50 of standard peptide / IC50 of test peptide) in experiment [3] was 0.72; in experiment [4], 7.1.

For LVSMDVKHR (modifications not checked) [HPV16 E1 peptide … (position 544, 9 amino acids)], the figures for the relative binding ratio (IC50 of standard peptide / IC50 of test peptide) in experiment [3] and in experiment [4] were 0.0005 and 0.0089, respectively.

On to GAANTGKSL (modifications not checked) [HPV16 E1 477 peptide …], for which the relative binding ratio (IC50 of standard peptide / IC50 of test peptide) in experiment [7] was 0.0003.

As for CTFELSQMV (modifications not checked) [HPV16 E1 … (position 353)], the relative binding ratio (IC50 of standard peptide / IC50 of test peptide) in experiment [7] was found to be 0.0029.

In the case of SVICFVNSK (modifications not checked) [HPV16 E1 peptide … (position 497, 9 amino acids)], the results for the relative binding ratio (IC50 of standard peptide / IC50 of test peptide) in experiment [3] and in experiment [4] were 0.0005 and 0.0002, respectively.

As to ISLNSGQKK (modifications not checked) [HPV18 E1 position 116 peptide …], the binding affinity ratio (IC50 of standard peptide / IC50 of test peptide) in experiment [3] was found to be 0.0003; in experiment [4], 0.0026; in experiment [8] it was 0.0026.

Consider LLVRYKCGK (modifications not checked) [HPV16 E1 peptide … (position 277, 9 amino acids)], for which the values for the binding affinity ratio (IC50 of standard peptide / IC50 of test peptide) in experiment [1] and in experiment [2] were 0.0043 and 0.0033, respectively.

Regarding QMSMSQWIK (modifications not checked) [HPV16 E1 peptide … (position 419, 9 amino acids)], the binding affinity ratio (IC50 of the standard peptide / IC50 of the test peptide) in experiment [6] is 0.0023. Moreover, the values for the relative binding ratio (IC50 of standard peptide / IC50 of test peptide) in experiment [3] and in experiment [4] were 0.0023 and 0.026, respectively.

Regarding RLKAICIEK (modifications not checked) [HPV16 E1 peptide … (position 109, 9 amino acids)], the values for the relative binding ratio (IC50 of standard peptide / IC50 of test peptide) in experiment [3] and in experiment [4] were 0.084 and 0.051, respectively.

On to AAFGLTPSI (modifications not checked) [HPV16 E1 … (position 239)], for which, in experiment [7], the relative binding ratio (IC50 of standard peptide / IC50 of test peptide) was 0.0012.

With DLRAFQQLFL (modifications not checked) [HPV18 E7 peptide … (position 82)], in experiment [7], the relative binding ratio (IC50 of standard peptide / IC50 of test peptide) stood at 0.001.

For the molecule SMSQWIKYR (modifications not checked) [HPV16 E1 peptide … (position 421, 9 amino acids)], the relative binding ratio (IC50 of standard peptide / IC50 of test peptide) in experiment [3] came out at 0.69; in experiment [4], 0.028.

Consider FLKSNSQAK (modifications not checked) [HPV31 E1 peptide … (position 372, 9 amino acids)], for which the relative binding ratio (IC50 of standard peptide / IC50 of test peptide) (ratio to standard peptide) in experiment [1] came out at 0.0013.

For IAAFGLTPSI (modifications not checked) [HPV16 E1 238 peptide …], the relative binding ratio (IC50 of standard peptide / IC50 of test peptide) in experiment [7] is 0.0002.

FLKSNSQAK (modifications not checked) [HPV33 E1 385 peptide … (A03 supermotif peptide, 9 amino acids)]: the relative binding ratio (IC50 of standard peptide / IC50 of test peptide) in experiment [1] was found to be 0.0013.
